Source: article PMC5692591

What was measured:
[1] = biological target: TonB1 periplasmic domain (residues 109–342) (P. aeruginosa); assay: ITC
[2] = biological target: FpvAI (ferripyoverdine transporter of P. aeruginosa PAO1), recombinant (P. aeruginosa PAO1); assay: ITC
[3] = biological target: FpvAI (ferripyoverdine transporter of P. aeruginosa PAO1), recombinant (P. aeruginosa PAO1)

## N-terminal domain of pyocin S2 (pyoS2^NTD), residues 1–209 (from UniProt Q06584 1-209) (domain or fragment)
[1]
  Kd: 1000 nM
[2]
  Kd: 0.24 nM
  dH: -15.8 kcal/mol
  stoichiometry N: 0.78 sites

## Δ1–45 pyoS2^NTD (from UniProt Q06584 46-209) (domain or fragment)
[3]
  fold decrease of binding against pyoS2^NTD: 1000 fold
